Reference: the supplement of paper PMC12764529
± gives the half width of the 95% confidence interval.

Experiments:
[1] = folding stability dG unfold from trypsin proteolysis; higher = more stable
Procedure, shortened: (§1)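 K50 was inferred by Bayesian fitting of sequencing counts obtained after protease digestion of designed mini-proteins. Unfolding free energy was derived by comparison with a sequence-predicted unfolded-state K50 and a shared folded-state K50, for each protease or both combined. The mini-proteins were under 80 residues, had no cysteine, were carried in a PA-tagged cDNA display construct, and were kept only if AlphaFold2 dimer inter-PAE exceeded 15.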

[2] = folding stability dG unfold from chymotrypsin proteolysis; higher = more stable
Procedure, shortened: as §1

[3] = folding stability dG unfold (combined trypsin and chymotrypsin); higher = more stable
Procedure, shortened: as §1

Sequence	folding stability dG unfold [1] [kcal/mol]	folding stability dG unfold [2] [kcal/mol]	folding stability dG unfold [3] [kcal/mol]
SAGGSAGGSAGMLIELTVETSVTTVSTPDATFTVVTLKEPGKPETLGTVVYDPATGSPALSAGGSAGGSAGG [r11_645_JUSTAS]	0.615 ± 0.036	-0.959 ± 0.39	0.168 ± 0.14
SAGGSAGGSAGMLKKSPSPSIITVKIKPPDSDEVKTINIPPDKPEEVEKLREKGLEIEVLSAGGSAGGSAGG [r11_1006_JUSTAS]	-0.459 ± 0.35	-0.178 ± 0.37	-0.211 ± 0.26
SAGGSAGGSAGMMKVRIRVDGKEIEIEVPPGMTVDEIAERLKKEFGKDIEIEVEEVKPEPSAGGSAGGSAGG [r11_805_TrROS_Hall]	3.72 ± 0.23	3.17 ± 0.1	3.39 ± 0.22
SAGGSAGGSAGMPEVEVEVKIIKFDKEKNVFVIEVTDKKTGKRVTLTIKNGKIELKVEEPSAGGSAGGSAGG [r17_370_TrROS_Hall]	2.85 ± 0.098	4.06 ± 0.089	3.7 ± 0.19
SAGGSAGGSAGMPKRKITKIETEELPPELIRVTITLPDGTPVPVVVSPDDEEVKAIIEKLSAGGSAGGSAGG [r11_122_JUSTAS]	-0.0513 ± 0.3	0.113 ± 0.13	0.311 ± 0.24
SAGGSAGGSAGMPLTVLGTEEIGDSTTVTTKDPTSDELYRKTYTNGAVSSTEIVPASELGSAGGSAGGSAGG [r11_19_JUSTAS]	0.0214 ± 0.053	0.282 ± 0.07	0.217 ± 0.072
SAGGSAGGSAGMPVKVVLVKWKGGGLEPEGGEEREVEIGPEELEKLVKEAEKEGYEVYPASAGGSAGGSAGG [r17_18_TrMRF]	0.165 ± 0.11	-0.126 ± 0.35	0.0684 ± 0.36
SAGGSAGGSAGMRLVTITLTTEKPIFDENGNPIGTTTRTVVLEREVPEPEVPEVPLYQALSAGGSAGGSAGG [r11_131_JUSTAS]	0.304 ± 0.18	0.189 ± 0.18	0.261 ± 0.17
SAGGSAGGSAGMRTITIPIPDGDPENIEEQARELADAFPDLKGKKVNIEYHKDGWITITVSAGGSAGGSAGG [r17_324_TrROS]	0.694 ± 0.15	1.19 ± 0.1	1.15 ± 0.18
SAGGSAGGSAGMRYEIEVEEVPPGLVRIRVRVDGKEYTILISEEEAKRLAEELGVEIEPVSAGGSAGGSAGG [r17_109_TrROS_Hall]	3.24 ± 0.12	2.28 ± 0.07	2.76 ± 0.19
SAGGSAGGSAGMSVSLTSTTVSLPPELLSPEEAARTEDAVVTTTTSTLPAVVDPATGTVTSAGGSAGGSAGG [r17_310_JUSTAS]	1.92 ± 0.057	0.518 ± 0.043	1.39 ± 0.092
SAGGSAGGSAGMTITKTEDGTYRLTLTVTETLPNGSTVTRTVTLTVPLEDAEEILAALPPSAGGSAGGSAGG [r11_505_TrROS_Hall]	2.52 ± 0.11	2.87 ± 0.032	2.72 ± 0.089
SAGGSAGGSAGMTITLPNGAEITSIEINEDGTITITVRVNGKTLTLTITVTLPPPPPEEPSAGGSAGGSAGG [r17_421_TrROS_Hall]	3.67 ± 0.17	3.54 ± 0.16	3.69 ± 0.18
SAGGSAGGSAGMTLIYKDPETGKYYIVDFEESGPERVFEVDSLDEAEEIAEKLGRKLDPLSAGGSAGGSAGG [r11_1049_TrMRF]	1.39 ± 0.029	2.591 ± 0.018	2.31 ± 0.055
